Experimental data reported in patent publication US10010616B2, “Immunogenic compositions and reagents for preparing” (PURDUE RESEARCH FOUNDATION, priority 2011, dated 2018).

Legend:
Mice = test: Anti-lysozyme antibody response in mice, conjugated vs unconjugated lysozyme; assay type: in vivo; settings: 10 μg dose, FIG. 2
Procedure: Compound B-Lysozyme-P2 is prepared in a similar manner using a greater excess of conjugating agent compound B. To determine the magnitude of immunogenic enhancement for the linker-modified protein, a dose response is evaluated comparing a range of doses of compound B-Lysozyme-P2 and AH, to a range of doses of unmodified hen egg lysozyme and AH, according to the following table:
Mice are injected on day 0 and day 21. Blood is collected on day 21 and on day 35. Serum anti-lysozyme IgG and anti-lysozyme IgG subclasses are measured by ELISA assay.
Dose response comparison of conjugated and unconjugated lysozyme immunological response. […] preparations are investigated: (A), lysozyme alone (10 μg dose); (B), lysozyme (10 μg dose)+AH; (C), lysozyme-P2 (2 conjugate load, 10 μg dose)+AH; (D) lysozyme (1 μg dose)+AH; (E), lysozyme-P2 (1 μg dose)+AH.

[1] = reported, Hem et al., Vaccine 1995; cited from earlier work
[2] = Adsorption isotherm on aluminum hydroxide adjuvant; assay type: binding; settings: Rehydragel HPA aluminum hydroxide 20-26 μg/mL, 4° C., micro BCA assay
Procedure: The phosphorus containing groups described herein bind adjuvants. Compounds containing a phosphorus containing group and a UV chromophore are prepared and quantitative binding data are obtained as adsorption isotherms. Briefly, Rehydragel HPA aluminum hydroxide was suspended (113 μg/mL) in buffer, and varying concentrations of each of compounds E, F, G, and H are added. The suspensions are allowed to equilibrate, and the concentration of each compound in solution at equilibrium is measured. The amount of compound adsorbed (weight/weight) is plotted against the concentration in solution to generate the adsorption isotherm. Adsorption capacity and adsorptive coefficient are calculated for each compound by double reciprocal analysis; the results are summarized in the following table.
Compound B is coupled to egg white lysozyme. […] After centrifugation, the protein concentration in the supernatant is measured by a standard micro bicinchoninic acid protein assay procedure. […]
Adsorption of Compound H (Egg white Lysozyme/Compound B conjugate) by Aluminum Hydroxide. […] The supernatant was analyzed in triplicate for compound H concentration by the micro bicinchoninic acid (BCA) assay. The amount of compound H adsorbed was determined by subtracting the amount remaining in the supernatant from the amount initially present. […]

Substance: lysozyme: egg white lysozyme (16 kDa MW), unmodified
- anti-lysozyme antibody production (Mice): does not show a significant induction of antibody response
- Complexation by aluminum hydroxide (in words) [1]: negligibly complexed
- Affinity for aluminum hydroxide (in words) [2]: poor electrostatic binding with aluminum hydroxide
